Source: patent US20220411504A1 (Janssen / Centocor, published 2022)
Changes are numbered by the printed parent chain.

T1: recombinant human DLL3 (human, UniProt Q9NYJ7 27-492)
T1 construct: also called DLL3 antigen; Delta-like protein 3
T1 sequence: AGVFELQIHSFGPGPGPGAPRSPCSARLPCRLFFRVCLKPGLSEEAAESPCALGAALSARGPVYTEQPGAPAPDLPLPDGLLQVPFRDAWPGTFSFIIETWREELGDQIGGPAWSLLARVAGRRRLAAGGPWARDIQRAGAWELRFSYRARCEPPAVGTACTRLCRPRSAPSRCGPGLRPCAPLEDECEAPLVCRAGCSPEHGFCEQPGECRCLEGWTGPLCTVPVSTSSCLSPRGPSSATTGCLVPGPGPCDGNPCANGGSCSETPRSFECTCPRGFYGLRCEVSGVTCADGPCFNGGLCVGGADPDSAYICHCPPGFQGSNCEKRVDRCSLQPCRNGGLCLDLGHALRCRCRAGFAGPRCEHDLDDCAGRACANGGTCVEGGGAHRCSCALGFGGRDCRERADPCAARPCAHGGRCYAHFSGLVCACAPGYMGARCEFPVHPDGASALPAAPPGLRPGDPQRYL

T2: DLL3 on tumor cells (SHP-77, HCC1833, G361) (human, UniProt Q9NYJ7 27-618)
T2 sequence: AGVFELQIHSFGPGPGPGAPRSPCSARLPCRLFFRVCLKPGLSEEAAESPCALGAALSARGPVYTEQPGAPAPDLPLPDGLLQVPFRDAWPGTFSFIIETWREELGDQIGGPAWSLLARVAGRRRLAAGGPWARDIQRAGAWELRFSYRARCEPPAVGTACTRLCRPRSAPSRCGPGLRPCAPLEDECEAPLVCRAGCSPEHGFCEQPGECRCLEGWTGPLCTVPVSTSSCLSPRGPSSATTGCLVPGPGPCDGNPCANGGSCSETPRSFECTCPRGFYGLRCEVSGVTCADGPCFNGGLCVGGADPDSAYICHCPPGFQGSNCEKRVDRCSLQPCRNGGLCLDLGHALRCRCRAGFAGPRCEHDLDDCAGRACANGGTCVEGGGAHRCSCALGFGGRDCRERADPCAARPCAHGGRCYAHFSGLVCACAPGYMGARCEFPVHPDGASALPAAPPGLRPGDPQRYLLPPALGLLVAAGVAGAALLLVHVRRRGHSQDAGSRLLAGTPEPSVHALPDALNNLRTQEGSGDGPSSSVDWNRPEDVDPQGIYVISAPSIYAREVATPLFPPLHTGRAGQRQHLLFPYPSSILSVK

B1: MHGB665 v-region as scFv (E. coli supernatant) (scFv, V domains shown)
VH: QVQLQQSGPGLVKPSQTLSLTCAISGDSVSSNSAAWNWIRQSPSRGLEWLGRTYYRSKWYNDYAVSVKSRITINPDTSKNQISLQLNSVTPEDTAVYYCAGDRRYGIVGLPFAYWGQGTLVTVSS
VL: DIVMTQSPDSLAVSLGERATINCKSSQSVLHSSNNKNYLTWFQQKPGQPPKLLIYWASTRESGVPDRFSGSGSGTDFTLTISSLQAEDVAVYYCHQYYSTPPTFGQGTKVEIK
notes: One scFv chain
B2: MHGB738 v-region as scFv (E. coli supernatant) (scFv, V domains shown)
VH: QVQLQQSGPGLVKPSQTLSLTCAISGDSVSSNRAAWNWIRQSPSRGLEWLGRTYYRSKWYNDYAVSVKSRITINPDTSKNQISLQLNSVTPEDTAVYYCARVRPGIPFDYWGQGTPVTVSS
VL: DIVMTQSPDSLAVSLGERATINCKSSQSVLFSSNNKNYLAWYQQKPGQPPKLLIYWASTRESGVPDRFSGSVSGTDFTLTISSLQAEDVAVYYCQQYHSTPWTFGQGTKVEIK
notes: One scFv chain; also called MHGB738 (GL optimized B688)
B3: MHGB694 v-region as scFv (E. coli supernatant) (scFv, V domains shown)
VH: EVQLLESGGGLVQPGGSLRLSCAASGFTFSSYAMHWVRQAPGKGLDWVSGISGSGFSTYYVDSVKGRFTISRDNSKHTLYLQMNSLRAEDTAVYYCAKDNLVAGTVFDYWGQGTLVTVSS
VL: not shown
notes: One scFv chain
B4: MHGB737 v-region as scFv (E. coli supernatant) (scFv, V domains shown)
VH: B3 VH with D46E, H77N
VL: not shown
notes: One scFv chain; also called MHGB737 (GL optimized B694)
B5: DL3B582 (bispecific antibody)
heavy: QVQLVQSGAEVKKPGASVKVSCKASGNTFTNYYIHWVRQAPGQGLEWMGIINPSGGSTSYAQKLQGRMTMTRDTSTSTVYMELSSLRSEDTAVYFCARQGPFIGDAFDIWGQGTMVTVSSASTKGPSVFPLAPSSKSTSGGTAALGCLVKDYFPEPVTVSWNSGALTSGVHTFPAVLQSSGLYSLSSVVTVPSSSLGTQTYICNVNHKPSNTKVDKKVEPKSCDKTHTCPPCPAPEAAGGPSVFLFPPKPKDTLMISRTPEVTCVVVSVSHEDPEVKFNWYVDGVEVHNAKTKPREEQYNSTYRVVSVLTVLHQDWLNGKEYKCKVSNKALPAPIEKTISKAKGQPREPQVYVLPPSREEMTKNQVSLLCLVKGFYPSDIAVEWESNGQPENNYLTWPPVLDSDGSFFLYSKLTVDKSRWQQGNVFSCSVMHEALHNHYTQKSLSLSPG
light: DIQMTQSPSSLSASVGDRVTITCRASQGISNYLAWFQQKPGKAPKSLIYAASSLQSGVPSKFSGSGSGTDFTLTISSLQPEDFATYYCQQYNSYPYTFAQGTKLEIKRTVAAPSVFIFPPSDEQLKSGTASVVCLLNNFYPREAKVQWKVDNALQSGNSQESVTEQDSKDSTYSLSSTLTLSKADYEKHKVYACEVTHQGLSSPVTKSFNRGEC
scFv: DIQMTQSPSSLSASVGDRVTITCRARQSIGTAIHWYQQKPGKAPKLLIKYASESISGVPSRFSGSGSGTDFTLTISSLQPEDFATYYCQQSGSWPYTFGQGTKLEIKGGSEGKSSGSGSESKSTGGSEVQLVESGGGLVKPGGSLRLSCAASGFTFSRYNMNWVRQAPGKGLEWVSSISTSSNYIYYADSVKGRFTFSRDNAKNSLDLQMSGLRAEDTAIYYCTRGWGPFDYWGQGTLVTVSSEPKSSDKTHTCPPCPAPEAAGGPSVFLFPPKPKDTLMISRTPEVTCVVVSVSHEDPEVKFNWYVDGVEVHNAKTKPREEQYNSTYRVVSVLTVLHQDWLNGKEYKCKVSNKALPAPIEKTISKAKGQPREPQVYVYPPSREEMTKNQVSLTCLVKGFYPSDIAVEWESNGQPENNYKTTPPVLDSDGSFALVSKLTVDKSRWQQGNVFSCSVMHEALHNHYTQKSLSLSPG
notes: also called CD3W245-LH-scFv; DL3B279-Fab
B6: DL3B583 (bispecific antibody)
heavy: B5 heavy
light: B5 light
scFv: EVQLVESGGGLVKPGGSLRLSCAASGFTFSRYNMNWVRQAPGKGLEWVSSISTSSNYIYYADSVKGRFTFSRDNAKNSLDLQMSGLRAEDTAIYYCTRGWGPFDYWGQGTLVTVSSGGSEGKSSGSGSESKSTGGSDIQMTQSPSSLSASVGDRVTITCRARQSIGTAIHWYQQKPGKAPKLLIKYASESISGVPSRFSGSGSGTDFTLTISSLQPEDFATYYCQQSGSWPYTFGQGTKLEIKEPKSSDKTHTCPPCPAPEAAGGPSVFLFPPKPKDTLMISRTPEVTCVVVSVSHEDPEVKFNWYVDGVEVHNAKTKPREEQYNSTYRVVSVLTVLHQDWLNGKEYKCKVSNKALPAPIEKTISKAKGQPREPQVYVYPPSREEMTKNQVSLTCLVKGFYPSDIAVEWESNGQPENNYKTTPPVLDSDGSFALVSKLTVDKSRWQQGNVFSCSVMHEALHNHYTQKSLSLSPG
notes: also called CD3W245-HL-scFv; DL3B279-Fab
B7: DL3B587 (bispecific antibody, human IgG1, kappa, L234A L235A)
scFv: DIQMTQSPSSLSASVGDRVTITCRASQGISNYLAWFQQKPGKAPKSLIYAASSLQSGVPSKFSGSGSGTDFTLTISSLQPEDFATYYCQQYNSYPYTFAQGTKLEIKGGSEGKSSGSGSESKSTGGSQVQLVQSGAEVKKPGASVKVSCKASGNTFTNYYIHWVRQAPGQGLEWMGIINPSGGSTSYAQKLQGRMTMTRDTSTSTVYMELSSLRSEDTAVYFCARQGPFIGDAFDIWGQGTMVTVSSEPKSSDKTHTCPPCPAPEAAGGPSVFLFPPKPKDTLMISRTPEVTCVVVSVSHEDPEVKFNWYVDGVEVHNAKTKPREEQYNSTYRVVSVLTVLHQDWLNGKEYKCKVSNKALPAPIEKTISKAKGQPREPQVYVLPPSREEMTKNQVSLLCLVKGFYPSDIAVEWESNGQPENNYLTWPPVLDSDGSFFLYSKLTVDKSRWQQGNVFSCSVMHEALHNHYTQKSLSLS
heavy: EVQLVESGGGLVKPGGSLRLSCAASGFTFSRYNMNWVRQAPGKGLEWVSSISTSSNYIYYADSVKGRFTFSRDNAKNSLDLQMSGLRAEDTAIYYCTRGWGPFDYWGQGTLVTVSSASTKGPSVFPLAPSSKSTSGGTAALGCLVKDYFPEPVTVSWNSGALTSGVHTFPAVLQSSGLYSLSSVVTVPSSSLGTQTYICNVNHKPSNTKVDKKVEPKSCDKTHTCPPCPAPEAAGGPSVFLFPPKPKDTLMISRTPEVTCVVVSVSHEDPEVKFNWYVDGVEVHNAKTKPREEQYNSTYRVVSVLTVLHQDWLNGKEYKCKVSNKALPAPIEKTISKAKGQPREPQVYVYPPSREEMTKNQVSLTCLVKGFYPSDIAVEWESNGQPENNYKTTPPVLDSDGSFALVSKLTVDKSRWQQGNVFSCSVMHEALHNHYTQKSLSLSPG
light: DIQMTQSPSSLSASVGDRVTITCRARQSIGTAIHWYQQKPGKAPKLLIKYASESISGVPSRFSGSGSGTDFTLTISSLQPEDFATYYCQQSGSWPYTFGQGTKLEIKRTVAAPSVFIFPPSDEQLKSGTASVVCLLNNFYPREAKVQWKVDNALQSGNSQESVTEQDSKDSTYSLSSTLTLSKADYEKHKVYACEVTHQGLSSPVTKSFNRGEC
notes: also called CD3W245-Fab; DL3B279-LH-scFv

The binders below were run against recombinant HLA-G (human) (assay: ELISA, scFv in E. coli supernatant on recombinant HLA-G).
Description: (§1) The original and germline-optimized v-regions were screened for thermal stability in scFv format. Briefly, v-regions were cloned into scFv format and were expressed in E. coli. The culture supernatants were assessed by ELISA for their abilities to bind recombinant HLA-G. Supernatant samples were also heat shocked at either 55, 60, or 65° C., and the binding of the heat-shocked samples was compared to the unheated samples. This analysis provided an estimate of the thermal stability of the v-regions when formatted as scFv.
(§2) V-regions were expressed as scFv in the supernatant from E. coli and were analyzed for their ability to bind recombinant HLA-G by ELISA. Samples were tested at room temperature or after heat treatment for 10 min at 55, 60, or 65° C.

Binder | Room temperature binding signal
B1 | 1.52e+07
B2 | 5.76e+06
B3 | 3.07e+06
B4 | 2.75e+06

What follows are binders tested against recombinant HLA-G (human) (assay: ELISA after 10 min heat treatment of the scFv supernatant).
Description: as §1, §2

Binder | % Binding retained 55° C. [%] | % Binding retained 60° C. [%] | % Binding retained 65° C. [%]
B1 | 103 | 122 | 11
B2 | 14 | 2 | 1
B3 | 85 | 9 | 4
B4 | 84 | 80 | 48

The binders below were run against T1, recombinant human DLL3 (assay: SPR (Biacore T200), antibody captured by goat anti-Fc, DLL3 titrated).
Description: The binding affinity of anti-DLL3×CD3 antibodies to the recombinant human DLL3 was determined by surface plasmon resonance (SPR) using a Biacore T200 instrument. […] The association was monitored for 2 minutes and the and dissociation for 5 or 60 minutes, using a flow rate of 100 μL/min. Raw binding data was referenced by subtracting the analyte binding signals from blanks and analyzed using a 1:1 Langmuir binding model using the Biacore Insight evaluation software to obtain the kinetics which were used to calculate the binding affinity.
The antibodies were captured using an anti-human Fc antibody and the antigens were injected in solution.

Binder | Kd [nM]
B5 | 0.016
B6 | 0.016
B7 | 0.031

These binders were tested against T2, DLL3 on tumor cells (SHP-77, HCC1833, …) (assay: cell-based or functional assay).

Binder | Cytotoxicity, % lysis of SHP-77 cells (whole PBMCs, 1:1 ET, 30 nM) [%]
B5 | 87.3
B6 | 99.8
B7 | 83.3
